Test results taken from patent publication US8034904B2, “Anti-IGF-I receptor antibody” (Immunogen Inc., priority 2002, dated 2011).

Columns and labels:
[1] = tested on: RD (rhabdomyocarcoma) cells; test: Growth and survival of RD cells (MTT assay); assay type: cell-based, human
Experimental: (§1) Several human tumor cell lines were tested in serum-free conditions for their growth and survival response to IGF-I. These cell lines were treated with EM164 antibody in the presence of IGF-I, IGF-II, or serum, and their growth and survival responses were measured using an MTT assay after 2-4 days. Approximately 1500 cells were plated in a 96-well plate in regular medium with serum, which was replaced with serum-free medium the following day (either serum-free RPMI medium supplemented with transferrin and BSA, or phenol-red free medium as specified by Dufourny, B. et al., 1997, J. Biol. Chem., 272, 31163-31171). After one day of growth in serum-free medium, the cells were incubated with about 75 μL of 10 μg/mL antibody for 30 min.-3 h, followed by the addition of 25 μL of IGF-I (or IGF-II or serum) solution to obtain a final concentration of 10 ng/mL IGF-I, or 20 ng/mL IGF-II, or 0.04-10% serum. In some experiments, the cells were stimulated first with IGF-I for 15 min before the addition of EM164 antibody, or both IGF-I and EM164 antibody were added together. The cells were then allowed to grow for another 2-3 days. A solution of MTT (3-(4,5)-dimethylthiazol-2-yl)-2,5-diphenyltetrazolium bromide; 25 μL of a 5 mg/mL solution in PBS) was then added and the cells were returned to the incubator for 2-3 h. The medium was then removed and replaced by 100 μL DMSO, mixed, and the absorbance of the plate was measured at 545 nm.

[2] = target: T1, IGF-I receptor on MCF-7 cells (Homo sapiens, UniProt P08069); test: FACS binding to human breast cancer MCF-7 cells
T1 construct: human breast cancer MCF-7 cells, which expressed IGF-I receptor; endogenous in cells; host or cells: MCF-7 human breast cancer cells
Experimental: The cells were pelleted by centrifugation and washed with cold FACS buffer by gentle flicking, followed by incubation with goat-anti-mouse-IgG-antibody-FITC conjugate (100 μL; 10 μg/mL in FACS buffer) on ice for 1 h. The cells were pelleted, washed, and resuspended in 120 μL of 1% formaldehyde solution in PBS. The plate was analyzed using a FACSCalibur reader (BD Biosciences).

[3] = tested on: A 431 (epidermoid) cells; test: Growth and survival of A 431 cells (MTT assay); assay type: cell-based, human
Experimental: as §1

[4] = tested on: MCF-7 cells; test: Cell cycle analysis of MCF-7 cells (propidium iodide, flow cytometry); assay type: cell-based, human; conditions: IGF-I 20 ng/mL with or without EM164 20 μg/mL, 1 day
Experimental: The EM164 antibody caused growth arrest of cells in G0/G1 phase of cell cycle and abrogated the mitogenic effect of IGF-I. For cell cycle analysis, MCF-7 cells were treated with IGF-I (20 ng/mL) in the presence or absence of EM164 (20 μg/mL) for 1 day and then analyzed by propidium iodide staining and flow cytometry.

[5] = target: T2, SDS-denatured human IGF-I receptor (Homo sapiens, UniProt P08069); test: Western blot detection of SDS-denatured IGF-I receptor in MCF-7 lysates; assay type: binding; conditions: lysates from MCF-7 cells
T2 construct: human breast cancer MCF-7 cells, which expressed IGF-I receptor; endogenous in cells; host or cells: MCF-7 human breast cancer cells
Description: (§2) A Western blot of the EM164 antibody immunoprecipitate was detected using a rabbit polyclonal anti-IGF-I receptor beta chain (C-terminus) antibody (Santa Cruz Biotechnology) and a goat-anti-rabbit-IgG-antibody-horseradish peroxidase conjugate, followed by washes and enhanced chemiluminescence (ECL) detection.

[6] = tested on: A 375 (melanoma) cells; test: Growth and survival of A 375 cells (MTT assay); assay type: cell-based, human
Experimental: as §1

[7] = tested on: NCI-H838 (lung) cells; test: Growth and survival of NCI-H838 cells (MTT assay); assay type: cell-based, human
Experimental: as §1

[8] = tested on: Human non-small cell lung cancer Calu-6 xenografts; assay type: in vivo
Description: Human non-small cell lung cancer Calu-6 xenografts were established in immunodeficient mice by subcutaneous injections of 1×10^7 Calu-6 cells.

[9] = tested on: SK-LU-1 cells; test: Growth and survival of SK-LU-1 cells (MTT assay); assay type: cell-based, human
Experimental: as §1

[10] = target: T3, IGF-I receptor of 3T3 cells (Mus musculus, UniProt Q60751); test: Immunoprecipitation of IGF-I receptor from 3T3 cells; assay type: binding
T3 construct: endogenous in cells; host or cells: 3T3 cells (mouse)
T3 sequence (Q60751 31-1373): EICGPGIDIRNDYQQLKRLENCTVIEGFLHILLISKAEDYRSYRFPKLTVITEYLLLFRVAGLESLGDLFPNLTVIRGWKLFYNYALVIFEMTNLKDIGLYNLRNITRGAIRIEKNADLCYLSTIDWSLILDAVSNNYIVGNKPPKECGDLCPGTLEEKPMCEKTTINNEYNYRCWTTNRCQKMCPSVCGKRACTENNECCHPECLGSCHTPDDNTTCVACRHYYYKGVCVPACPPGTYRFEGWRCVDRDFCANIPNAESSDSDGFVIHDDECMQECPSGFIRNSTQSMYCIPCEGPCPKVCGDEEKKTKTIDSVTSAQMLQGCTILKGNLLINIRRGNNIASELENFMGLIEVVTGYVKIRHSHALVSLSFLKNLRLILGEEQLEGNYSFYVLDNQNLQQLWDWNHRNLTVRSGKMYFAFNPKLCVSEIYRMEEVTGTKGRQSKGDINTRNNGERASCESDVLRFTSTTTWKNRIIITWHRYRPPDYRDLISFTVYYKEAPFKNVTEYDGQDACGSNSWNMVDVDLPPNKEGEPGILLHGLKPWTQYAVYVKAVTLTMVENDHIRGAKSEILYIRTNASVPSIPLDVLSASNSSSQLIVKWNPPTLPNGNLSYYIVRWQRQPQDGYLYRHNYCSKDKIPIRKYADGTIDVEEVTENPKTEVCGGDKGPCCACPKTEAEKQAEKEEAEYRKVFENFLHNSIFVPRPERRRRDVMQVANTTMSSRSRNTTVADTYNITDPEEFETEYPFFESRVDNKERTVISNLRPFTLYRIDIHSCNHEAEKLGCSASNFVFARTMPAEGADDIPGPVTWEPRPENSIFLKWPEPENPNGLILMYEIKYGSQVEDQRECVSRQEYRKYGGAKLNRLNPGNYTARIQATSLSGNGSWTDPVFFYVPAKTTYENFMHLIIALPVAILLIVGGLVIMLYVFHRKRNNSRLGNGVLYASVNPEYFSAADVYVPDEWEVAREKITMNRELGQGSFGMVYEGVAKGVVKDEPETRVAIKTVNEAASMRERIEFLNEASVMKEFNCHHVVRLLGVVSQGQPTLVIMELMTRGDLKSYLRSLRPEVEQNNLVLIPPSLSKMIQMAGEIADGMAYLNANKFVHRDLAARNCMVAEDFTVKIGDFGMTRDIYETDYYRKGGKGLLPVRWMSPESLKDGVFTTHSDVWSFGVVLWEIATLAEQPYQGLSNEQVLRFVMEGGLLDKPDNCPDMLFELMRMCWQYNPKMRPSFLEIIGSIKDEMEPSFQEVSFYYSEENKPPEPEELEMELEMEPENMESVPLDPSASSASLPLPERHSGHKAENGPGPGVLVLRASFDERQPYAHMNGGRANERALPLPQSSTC
Description: as §2

[11] = tested on: MCF-7 (breast) cells; test: Growth and survival of MCF-7 cells (MTT assay); assay type: cell-based, human
Experimental: as §1

[12] = tested on: Calu-6 non-small cell lung cancer cells; test: Growth and survival of Calu-6 cells (MTT assay); assay type: cell-based, human
Experimental: as §1

[13] = tested on: Akt and Erk1/2; test: IGF-I receptor signaling in MCF-7 cells (Western blots, phospho-Akt and phospho-Erk1/2); assay type: cell-based, human
[14] = tested on: SK-Mel-37 cells; test: Growth and survival of SK-Mel-37 cells (MTT assay); assay type: cell-based, human; conditions: 5-10 μg/mL EM164, 10 ng/mL IGF-I
Experimental: as §1, with “A solution of MTT (3-(4,5)-dimethylthiazol-2-yl)-2,5-diphenyltetrazolium bromide; 25 μL of a 5 mg/mL solution in PBS) was then added and the cells were returned to the incubator for 2-3 h.” left out

[15] = target: biotinylated human IGF-I receptor; test: ELISA binding titration (Kd) with biotinylated IGF-I receptor
Experimental: The wells were next washed with TBS-T buffer and incubated with goat-anti-mouse-IgGH+L-antibody-horseradish peroxidase conjugate (100 μL; 0.5 μg/mL in blocking buffer), followed by washes and detection using ABTS/H2O2 substrate at 405 nm. The value of Kd was estimated by non-linear regression for one-site binding.
A similar binding titration was carried out using the Fab fragment of EM164 antibody, prepared by papain digestion of the antibody as described by E. Harlow and D. Lane (“Using Antibodies: A Laboratory Manual”; 1999, Cold Spring Harbor Laboratory Press, New York).

[16] = tested on: Akt and Erk1/2; test: IGF-I receptor signaling in SaOS-2 cells (Western blots, phospho-Akt and phospho-Erk1/2); assay type: cell-based, human
[17] = 5-10 μg/mL EM164, 10 ng/mL IGF-I
[18] = 5-10 μg/mL EM164, MTT or colony formation assay

B1: EM164: murine anti-IGF-I receptor monoclonal antibody, IgG1 with kappa light chain, hybridoma ATCC PTA-4457; heavy SEQ ID NO:7, light SEQ ID NO:8 (antibody)
heavy: QVQLQQSGAELVKPGASVKLSCKASGYTFTSYWMHWVKQRPGQGLEWIGEINPSNGRTNYNEKFKRKATLTVDKSSSTAYMQLSSLTSEDSAVYYFARGRPDYYGSSKWYFDVWGAGTTVTVSS
light: DVLMTQTPLSLPVSLGDQASISCRSSQSIVHSNVNTYLEWYLQKPGQSPKLLIYKVSNRFSGVPDRFSGSGSGTDFTLRISRVEAEDLGIYYCFQGSHVPPTFGGGTKLEIKR
modifications: antibody heavy chain; antibody light chain
[1]; [17]
  Inhibition by EM164 antibody of IGF-I-stimulated growth in serum-free medium: 85-100%
[1]; [18]
  % Inhibition by EM164 antibody of Growth/survival of cells in 1.25-10% serum: Yes
[2]
  fluorescence shift (FACS): strong fluorescence shift
[3]; [17]
  Inhibition by EM164 antibody of IGF-I-stimulated growth in serum-free medium: 85%
[3]; [18]
  % Inhibition by EM164 antibody of Growth/survival of cells in 1.25-10% serum: Yes
[4]
  cells in the G0/G1 phase: 77%
  cells in the S phase: 9%
[5]
  detection of SDS-denatured human IGF-I receptor in Western blots: did not detect
[6]; [17]
  Inhibition by EM164 antibody of IGF-I-stimulated growth in serum-free medium: 90%
[6]; [18]
  % Inhibition by EM164 antibody of Growth/survival of cells in 1.25-10% serum: No
[7]; NCI-H838 (lung), 5-10 μg/mL EM164
  % Inhibition by EM164 antibody of Growth/survival of cells in 1.25-10% serum: 85-90%
[7]; NCI-H838 (lung), 5-10 μg/mL EM164, 10 ng/mL IGF-I
  Inhibition by EM164 antibody of IGF-I-stimulated growth in serum-free medium: 100%
[7]; NCI-H838 cells
  inhibition of serum-stimulated growth: greater than 80%
[7]; compared to a control anti-B4 antibody, FIG. 9
  IGF-1- and serum-stimulated growth and survival of NCI-H838: strongly inhibited
[8]; EM164 6 injections of 0.8 mg/mouse, i.v.
  toxicity based on weights of the mice: No toxicity
[8]; established 100 mm^3 Calu-6 xenografts, EM164 0.8 mg/mouse i.v. x6, taxol 15 mg/kg i.p. x5
  growth of tumors: significantly slowed
[9]; [17]
  Inhibition by EM164 antibody of IGF-I-stimulated growth in serum-free medium: 100%
[9]; [18]
  % Inhibition by EM164 antibody of Growth/survival of cells in 1.25-10% serum: No
[10]
  binding to IGF-I receptor (immunoprecipitation): did not bind
[11]; 0.04-10% serum, FIG. 8
  inhibition of growth and survival of MCF-7 cells over a range of serum concentrations: equally effective
[11]; FIGS. 7 and 8
  IGF-1- or serum-stimulated growth and survival of MCF-7 cells: strongly inhibited
[11]; MCF-7 (breast), 5-10 μg/mL EM164
  % Inhibition by EM164 antibody of Growth/survival of cells in 1.25-10% serum: 85%
[11]; MCF-7 (breast), 5-10 μg/mL EM164, 10 ng/mL IGF-I
  Inhibition by EM164 antibody of IGF-I-stimulated growth in serum-free medium: 100%
[11]; MCF-7 cells, in the presence of serum
  inhibition of serum-stimulated growth: greater than 80%
[11]; separate experiment
  IGF-II-stimulated growth and survival of MCF-7 cells: strongly inhibited
[12]; [17]
  Inhibition by EM164 antibody of IGF-I-stimulated growth in serum-free medium: 85%
[12]; [18]
  % Inhibition by EM164 antibody of Growth/survival of cells in 1.25-10% serum: Yes
[13]
  intracellular IGF-I receptor signaling: almost completely inhibited
[13]; IGF-I stimulated
  activation of Akt and Erk1/2: inhibited in a dose-dependent manner
[14]
  Inhibition by EM164 antibody of IGF-I-stimulated growth in serum-free medium: 85%
[15]; ELISA titration, non-linear regression for one-site binding, read-out: dissociation constant (Kd)
  Kd: 0.1 nM
[15]; strong binding signals after prolonged 1-2 day washes
  koff rate: very slow
[16]
  EGF-stimulated phosphorylation of Erk1/2: did not inhibit
  intracellular IGF-I receptor signaling: almost completely inhibited
[16]; IGF-I stimulated
  activation of Akt and Erk1/2: inhibited in a dose-dependent manner
